Source: article PMC13226650, “Non-decameric NLRP3 reveals a TGN/MTOC-distal pathway of inflammasome activation” (Nature Communications, 2026)

Columns and labels:
[1] = target: the molecule itself; assay: SEC-MALS; peak 2 fractions (C7-D4) pooled, 1.3 mg/mL; Superose 6 Increase 10/300 GL in lysis buffer (50 mM HEPES pH 7.5, 150 mM NaCl, 0.5 mM TCEP, 10 mM MgCl2, 1 mM ADP); 0.5 mL/min
[2] = target: the molecule itself; assay: SEC + other: negative-stain EM; Superose 6 Increase 10/300 GL in 50 mM HEPES pH 7.5, 150 mM NaCl, 0.5 mM TCEP, 10 mM MgCl2, 1 mM ADP; elution against a gel filtration standard; SEC fractions of peak 2 imaged after 2 % uranyl acetate stain

| Protein | stoichiometry N [1] | binding result [2] |
| --- | --- | --- |
| MBP-NLRP3(Δexon3) (natural protein, human, UniProt Q96P20 3-1036, looked up, NLRP3, human, UniProt Q96P20, residues 3-1036 with the linker region encoded by exon 3 (residues 95-134) deleted; a TEV site stands between MBP and NLRP3; Calculated mass of the MBP-NLRP3(Δexon3) monomer is printed as 154.8 kDa; also called MBP-NLRP3 (∆95-134); source: baculovirus-infected Sf9 insect cells, purified (MBP-trap, SEC on Superose 6 Increase); not shown: MBP, N-terminal, kept) MASTRCKLARYLEDLEDVDLKKFKMHLEDYPPQKGCIPLPRGQTEKADHVDLATLMIDFNGEEKAWAMAVWIFAAINRRDLYEKAKRDEPKWDYRKKYRKYVRSRFQCIEDRNARLGESVSLNKRYTRLRLIKEHRSQQEREQELLAIGKTKTCESPVSPIKMELLFDPDDEHSEPVHTVVFQGAAGIGKTILARKMMLDWASGTLYQDRFDYLFYIHCREVSLVTQRSLGDLIMSCCPDPNPPIHKIVRKPSRILFLMDGFDELQGAFDEHIGPLCTDWQKAERGDILLSSLIRKKLLPEASLLITTRPVALEKLQHLLDHPRHVEILGFSEAKRKEYFFKYFSDEAQARAAFSLIQENEVLFTMCFIPLVCWIVCTGLKQQMESGKSLAQTSKTTTAVYVFFLSSLLQPRGGSQEHGLCAHLWGLCSLAADGIWNQKILFEESDLRNHGLQKADVSAFLRMNLFQKEVDCEKFYSFIHMTFQEFFAAMYYLLEEEKEGRTNVPGSRLKLPSRDVTVLLENYGKFEKGYLIFVVRFLFGLVNQERTSYLEKKLSCKISQQIRLELLKWIEVKAKAKKLQIQPSQLELFYCLYEMQEEDFVQRAMDYFPKIEINLSTRMDHMVSSFCIENCHRVESLSLGFLHNMPKEEEEEEKEGRHLDMVQCVLPSSSHAACSHGLVNSHLTSSFCRGLFSVLSTSQSLTELDLSDNSLGDPGMRVLCETLQHPGCNIRRLWLGRCGLSHECCFDISLVLSSNQKLVELDLSDNALGDFGIRLLCVGLKHLLCNLKKLWLVSCCLTSACCQDLASVLSTSHSLTRLYVGENALGDSGVAILCEKAKNPQCNLQKLGLVNSGLTSVCCSALSSVLSTNQNLTHLYLRGNTLGDKGIKLLCEGLLHPDCKLQVLELDNCNLTSHCCWDLSTLLTSSQSLRKLSLGNNDLGDLGVMMFCEVLKQQSCLLQNLGLSEMYFNYETKSALETLQEEKPELTVVFEPSW | 2 |  |
| MBP-NLRP3(Δexon3) + GSGAGG linker (natural protein, human, NLRP3, human, UniProt Q96P20, residues 3-94 (before the deleted exon 3 linker 95-134); short flexible linker that replaces residues 95-134; NLRP3, human, UniProt Q96P20, residues 135-1036 (after the deleted exon 3 linker 95-134); also called ∆95-134 + linker (GSGAGG); source: baculovirus-infected Sf9 insect cells, purified (MBP-trap, SEC on Superose 6 Increase); not shown: MBP, N-terminal, kept) MASTRCKLARYLEDLEDVDLKKFKMHLEDYPPQKGCIPLPRGQTEKADHVDLATLMIDFNGEEKAWAMAVWIFAAINRRDLYEKAKRDEPKWGSGAGGDYRKKYRKYVRSRFQCIEDRNARLGESVSLNKRYTRLRLIKEHRSQQEREQELLAIGKTKTCESPVSPIKMELLFDPDDEHSEPVHTVVFQGAAGIGKTILARKMMLDWASGTLYQDRFDYLFYIHCREVSLVTQRSLGDLIMSCCPDPNPPIHKIVRKPSRILFLMDGFDELQGAFDEHIGPLCTDWQKAERGDILLSSLIRKKLLPEASLLITTRPVALEKLQHLLDHPRHVEILGFSEAKRKEYFFKYFSDEAQARAAFSLIQENEVLFTMCFIPLVCWIVCTGLKQQMESGKSLAQTSKTTTAVYVFFLSSLLQPRGGSQEHGLCAHLWGLCSLAADGIWNQKILFEESDLRNHGLQKADVSAFLRMNLFQKEVDCEKFYSFIHMTFQEFFAAMYYLLEEEKEGRTNVPGSRLKLPSRDVTVLLENYGKFEKGYLIFVVRFLFGLVNQERTSYLEKKLSCKISQQIRLELLKWIEVKAKAKKLQIQPSQLELFYCLYEMQEEDFVQRAMDYFPKIEINLSTRMDHMVSSFCIENCHRVESLSLGFLHNMPKEEEEEEKEGRHLDMVQCVLPSSSHAACSHGLVNSHLTSSFCRGLFSVLSTSQSLTELDLSDNSLGDPGMRVLCETLQHPGCNIRRLWLGRCGLSHECCFDISLVLSSNQKLVELDLSDNALGDFGIRLLCVGLKHLLCNLKKLWLVSCCLTSACCQDLASVLSTSHSLTRLYVGENALGDSGVAILCEKAKNPQCNLQKLGLVNSGLTSVCCSALSSVLSTNQNLTHLYLRGNTLGDKGIKLLCEGLLHPDCKLQVLELDNCNLTSHCCWDLSTLLTSSQSLRKLSLGNNDLGDLGVMMFCEVLKQQSCLLQNLGLSEMYFNYETKSALETLQEEKPELTVVFEPSW |  | binds |
